Test results published in article PMC5456053.

Molecular target: SecYEG-SecDF•YajC (E. coli) (UniProt P0AGA2)

| Channel Activity, μA, +YEG: ion current in Xenopus oocytes injected with the fragment, liposomes, SecYEG-SecDF•YajC, pOmpA, ATP-Mg [μA] | Binder |
| --- | --- |
| 3.2 | SecA N643 (SecA 1-643) (domain or fragment) MLIKLLTKVFGSRNDRTLRRMRKVVNIINAMEPEMEKLSDEELKGKTAEFRARLEKGEVLENLIPEAFAVVREASKRVFGMRHFDVQLLGGMVLNERCIAEMRTGEGKTLTATLPAYLNALTGKGVHVVTVNDYLAQRDAENNRPLFEFLGLTVGINLPGMPAPAKREAYAADITYGTNNEYGFDYLRDNMAFSPEERVQRKLHYALVDEVDSILIDEARTPLIISGPAEDSSEMYKRVNKIIPHLIRQEKEDSETFQGEGHFSVDEKSRQVNLTERGLVLIEELLVKEGIMDEGESLYSPANIMLMHHVTAALRAHALFTRDVDYIVKDGEVIIVDEHTGRTMQGRRWSDGLHQAVEAKEGVQIQNENQTLASITFQNYFRLYEKLAGMTGTADTEAFEFSSIYKLDTVVVPTNRPMIRKDLPDLVYMTEAEKIQAIIEDIKERTAKGQPVLVGTISIEKSELVSNELTKAGIKHNVLNAKFHANEAAIVAQAGYPAAVTIATNMAGRGTDIVLGGSWQAEVAALENPTAEQIEKIKADWQVRHDAVLEAGGLHIIGTERHESRRIDNQLRGRSGRQGDAGSSRFYLSMEDALMRIFASDRVSGMMRKLGMKPGEAIEHPWVTKAIANAQRKVESRNFDIRK |
| 1.1 | SecA N639* (SecA 1-639, F639D) (domain or fragment) MLIKLLTKVFGSRNDRTLRRMRKVVNIINAMEPEMEKLSDEELKGKTAEFRARLEKGEVLENLIPEAFAVVREASKRVFGMRHFDVQLLGGMVLNERCIAEMRTGEGKTLTATLPAYLNALTGKGVHVVTVNDYLAQRDAENNRPLFEFLGLTVGINLPGMPAPAKREAYAADITYGTNNEYGFDYLRDNMAFSPEERVQRKLHYALVDEVDSILIDEARTPLIISGPAEDSSEMYKRVNKIIPHLIRQEKEDSETFQGEGHFSVDEKSRQVNLTERGLVLIEELLVKEGIMDEGESLYSPANIMLMHHVTAALRAHALFTRDVDYIVKDGEVIIVDEHTGRTMQGRRWSDGLHQAVEAKEGVQIQNENQTLASITFQNYFRLYEKLAGMTGTADTEAFEFSSIYKLDTVVVPTNRPMIRKDLPDLVYMTEAEKIQAIIEDIKERTAKGQPVLVGTISIEKSELVSNELTKAGIKHNVLNAKFHANEAAIVAQAGYPAAVTIATNMAGRGTDIVLGGSWQAEVAALENPTAEQIEKIKADWQVRHDAVLEAGGLHIIGTERHESRRIDNQLRGRSGRQGDAGSSRFYLSMEDALMRIFASDRVSGMMRKLGMKPGEAIEHPWVTKAIANAQRKVESRND |
| 0.4 | SecA N632 (SecA 1-632) (domain or fragment) MLIKLLTKVFGSRNDRTLRRMRKVVNIINAMEPEMEKLSDEELKGKTAEFRARLEKGEVLENLIPEAFAVVREASKRVFGMRHFDVQLLGGMVLNERCIAEMRTGEGKTLTATLPAYLNALTGKGVHVVTVNDYLAQRDAENNRPLFEFLGLTVGINLPGMPAPAKREAYAADITYGTNNEYGFDYLRDNMAFSPEERVQRKLHYALVDEVDSILIDEARTPLIISGPAEDSSEMYKRVNKIIPHLIRQEKEDSETFQGEGHFSVDEKSRQVNLTERGLVLIEELLVKEGIMDEGESLYSPANIMLMHHVTAALRAHALFTRDVDYIVKDGEVIIVDEHTGRTMQGRRWSDGLHQAVEAKEGVQIQNENQTLASITFQNYFRLYEKLAGMTGTADTEAFEFSSIYKLDTVVVPTNRPMIRKDLPDLVYMTEAEKIQAIIEDIKERTAKGQPVLVGTISIEKSELVSNELTKAGIKHNVLNAKFHANEAAIVAQAGYPAAVTIATNMAGRGTDIVLGGSWQAEVAALENPTAEQIEKIKADWQVRHDAVLEAGGLHIIGTERHESRRIDNQLRGRSGRQGDAGSSRFYLSMEDALMRIFASDRVSGMMRKLGMKPGEAIEHPWVTKAIANAQR |
